B1: STK4 (residues 1–326) K59R [human] / HOIP (residues 854–1072) [not stated] (parent complex)
chain 1: METVQLRNPPRRQLKKLDEDSLTKQPEEVFDVLEKLGEGSYGSVYKAIHKETGQIVAIRQVPVESDLQEIIKEISIMQQCDSPHVVKYYGSYFKNTDLWIVMEYCGAGSVSDIIRLRNKTLTEDEIATILQSTLKGLEYLHFMRKIHRDIKAGNILLNTEGHAKLADFGVAGQLTDTMAKRNTVIGTPFWMAPEVIQEIGYNCVADIWSLGITAIEMAEGKPPYADIHPMRAIFMIPTNPPPTFRKPELWSDNFTDFVKQCLVKSPEQRATATQLLQHPFVRSAKGVSILRDLINEAMDVKLKRQESQQREVDQDDEENSEEDEMD
chain 2: EYQAQGLAMYLQENGIDCPKCKFSYALARGGCMHFHCTQCRHQFCSGCYNAFYAKNKCPEPNCRVKKSLHGHHPRDCLFYLRDWTALRLQKLLQDNNVMFNTEPPAGARAVPGGGCRVIEQKEVPNGLRDEACGKETPAGYAGLCQAHYKEYLVSLINAHSLDPATLYEVEELETATERYLHVRPQPLAGEDPPAYQARLLQKLTEEVPLGQSIPRRRK

Variants of: B1
Assay: ITC

Row | Kd [µM] | Variant
1 | 97.9 | chain 1 R231E

From PMC12441119 (2025)
